Source: the supplement of paper PMC9170038

System: MS2 coat protein
Assay: apparent KD of MS2 coat protein; higher = weaker reporter binding
Conditions: Eterna round: R107
How it was run: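 Designed RNA switches were transcribed on-chip from Illumina sequencing clusters. SNAP-549-labelled MS2 coat protein was titrated onto them in twofold steps from 0.7 or 1.5 nM to 3 µM in 100 mM Tris-HCl pH 7.5, 80 mM KCl, 4 mM MgCl2, either without or with constant ligand. Apparent KD reflects the per-design median of normalised cluster binding-curve fits.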

[1] = input ligand: theophylline 20 uM
[2] = input ligand: theophylline 2 mM
[3] = input ligand: tryptophan 2.4 mM

| Sequence | apparent KD of MS2 coat protein (input ligand: arginine 13.2 mM) [nM] | apparent KD of MS2 coat protein [1] [nM] | apparent KD of MS2 coat protein [2] [nM] | apparent KD of MS2 coat protein [3] [nM] | apparent KD of MS2 coat protein (input ligand: none) [nM] |
| --- | --- | --- | --- | --- | --- |
| UAUAUAUAUCACUAACUGUUCUUGAGGUCUCGAGGACCGGUACGGCCGCCACUCGGGCCGCCUCACAUGAGGAUCACCCAUGUCC [XTryp A #3] | 38.9 | 94.8 | 89.4 | – | – |
| UUAUUUAUAAUUGAUACCAGUUUAAUGGCCGCAAAUCCUGACAUGAGGAUCACCCAUGUAAGCCCUUGGCAGCGGUUAUGGGUUU [XTheo B #25] | 22.8 | 26.4 | – | 22.1 | – |
| UUCAGCUAGUCGGCCGCCACUACAAGAGGAUCACCCUUGUAAUCCUAACACUGCUUCGGCAGUGGUAGGACCGGGACUAGCUGAG | 15.1 | 17.3 | 13.8 | 20.1 | 14.4 |
| AGUUAUUCGAACAUGGUUGACGAGUGGCAACGAGGACCGGUACGGCCGCCACUCGAAUAAACAUGAGGAUCACCCAUGUACAAAU [T''-M'-T'-T-MS2 - Design 10] | 72.1 | 264 | 442 | – | – |
| CGUCAACAUGAGGAUCACCCAUGUUUCGAUACCAGUGACCCUCUCCACCCUUGGCAGCGAGCGCCCGCGCCUGAUAAAUCUUCUA [theeternabot_sameState_MS2_Theo_A_18] | 13.5 | 16.4 | – | 14.1 | – |
| AGCUCGCAUCCUCAAGCGUCAAAGACGCGUCGAGGACCGGUACGGCCGCCACUCGACCUGAGGAACACCCAGGUCCUCGCGAGCA [TrypAX 7 #SwitchBubble #AlternativeMS2 #MS2Late #CuTurnoff] | 20.7 | 40.2 | 34.9 | 236 | 26.1 |
| UGACAUUGCUCAGAUACCAGACAUGAGCAUCAGCCAUGUGCCAACAAGUACAUAAUAAAUGUCCCUUGGCAGCUGAGCAAUGUCU [TheoBX 16 #MS2Left #Theo2 #AlternativeMS2] | 14.3 | 20.5 | 149 | 12.7 | 13 |
| CGUUGGUGUGGAGACAUAUUGAUGACUGAAGGAGCGGGAAUAAACCCAGGUAGGUCGCAGAGAUCCACAUGAGGAUCACCCAUGU [!0.R] | 26.3 | 74.9 | 154 | 49.5 | 73.1 |
| UGACAUUGCUGCGAUACCAGACAUGAGGAUCACCCAUGUACCAAGGUAAGAAAAUAACAUGUCCCUUGGCAGCGCAGCAAUGUCU [MAT - Exclusion Theophlline B - Mod of Eli - D1] | 18.9 | 40.2 | – | 14.4 | – |
| UGACAUUGCUCAGAUACCAGACGUGAGCAUCAGCCAUGUGCCAACAAGUACAAAAUAAAUGUCCCUUGGCAGCUGAGCAAUGUCU [TheoBX 22 #MS2Left #AlternativeMS2 #Theo22] | 18.5 | 23.4 | 175 | 16.9 | – |
| AGUAUCAGUGGAAGGAGCGUCGCGACUGCCACAUGAGGAUCACCCAUGUCGCCUUGAGCGCGACAGGUAGGUCGCCACGGUAGGC [SS-ArgB2] | 29.1 | 213 | 499 | 289 | 301 |
| CGCAACCCACAUGAGGAUCACCCAUGUGAAGGAGCGCCGAAUAAGGCAGGUAGGUCGCGCAUGAAUAAAUCAUGUAGGAAGCGAA [XArg-A 6 V1&2] | 20.6 | 32.6 | 33.4 | 29.1 | 32.2 |
| GUCUCUGGGAGAAGGAGCGUGAAGACAUGAGGAUCACCCAUGUAGAGGCGCCGACGGCGUUCGCAGGUAGGUCGCUCCCAGAGAC [#1 Same State - Arginine B Attempt #18 (HarryS)] | 18.9 | 44.5 | 110 | 14 | 23.9 |
| AUUGGGUUAUCAGAUACCAGACUAUUCUAGACAUGAGGAUCACCCAUGUAUUGGGUUUUCGUCCCUUGGCAGCUGUUAAGUUUAA [JR_SSTheophyB_Sub005] | 117 | 195 | – | 165 | – |
| GCGGUGGUCGGAAGGAGCGACAUGAGGAUCACCCAUGUCUCCCGUUAUGGGAGUUCCUUAGGUCAGGUAGGUCGCCGACUGCCGC [#1 Exclusion - Arginine B Attempt #21 (Inspired by Omei)] | 105 | 234 | 260 | 227 | 195 |
| CUACAUUUGUAGAAACCGGUCAACAUUAUUCGAGGACCGGUACGGCCGCCACUCGUAUAAUUUAAUACAUGAGGAUCACCCAUGU [Tryptophan A 5] | 16.1 | 17.3 | 16.9 | – | – |
| CGUAUCGUAACUGAUACCAGUGUACUGACAUGAGGAUCACCCAUGUUGGGUUUUGUUGUACACCCUUGGCAGCAGAAUCGAUACG [AstrosExyTheB#6] | 52.1 | 68.6 | – | 62.9 | – |
| UGCUACAUGAGGAUCACCCAUGUGGGUGAUACCAGCAUUCGUUAAUGCCCUUGGCAGCGCAGCCGAACCAUUCAUUCGGCAGAUC [Laxeor] | 36.2 | 214 | 382 | 328 | 125 |
| GCUAGGUCUACGGCCGCCACUAGACGUGGGUAAGACAUGAGGAUCACCCAUGUACUACAGGCGGAUAGGACCGGGUAGACCUAGC [SSTB NP+V+V2 #13 +-Same Structure] | 69.3 | 159 | 101 | – | – |
| AAUGUAUGGCACAUGAGGAUCACCCAUGUGCGAGGACCGGUACGGCCGCCACUCGGUCCUGGGAACUUAUUACUAUACAUUAAUG [XTryp A #18] | 11.9 | 16.9 | 13.1 | – | – |
| UGUCCGUGAUCGGCCGCCACUCAACAAACCUGUGGAAACUGACAUGAGGAUCACCCAUGUUCUUGGAGGACCGGGAUUGCUUCGA [theeternabot_sameState_MS2_Trp_B_4] | 16.7 | 19.7 | 18.5 | – | – |
| GAAUUUUAUUGAAGGAGCGUCGAAAAUGGGUAAACAUGAGGAUCACCCAUGUAAAGGGAACGACAGGUAGGUCGCAAUAGGAUUC [AstromonsSSArgB#28] | 140 | 188 | 247 | 151 | 177 |
| CCGGGCUGUGGAGACAUAGCCCGGACUGAAGGAGCGGGAAUAAACCCAGGUAGGUCGCAGAGAUCCACAUGAGGAUCACCCAUGU [!0.S] | 34.4 | 40.9 | 46.8 | 36.7 | 34 |
| UGUAUGGACUGAAGGAGCGGGUUGAUAACCUGAGGAUCACCCAGGUAAAAGGCGAAAGCCACCCAGGUAGGUCGCAGUCCAUACU | 16.3 | 21.6 | 19.7 | 20 | 18.1 |
| AUUGACAUGAGGAUCACCCAUGUAUCCGAAGGAGCGGCAGAUGUGCCAGGUAGGUCGCGGGUGAAAGAGACAUCGUAGGGUGUCG [Same State - Arginine A / B [only NuPack]] | 73.9 | 207 | 469 | 229 | 256 |
| UGUAUGUGAUCUGAUACCAGCUUAAUAACAUGAGCAUCAGCCAUGUGGAGCGGAAACGCUAGCCCUUGGCAGCAGAUCGCAUACU [Denovo 11 #StaticStem #AlternativeMS2] | 101 | 79 | 13.2 | 129 | 143 |
| GACGCAUGAGUUGGAACAGCUCAUGGGUCGCGAGGACCGGUACGGCCGCCACUCGGCUGUACAUGAGGAUCACCCAUGUCAGGGU [#1 Same State - Tryptophan A Attempt #30 (HarryS)] | 72.7 | 329 | 942 | – | – |
| UUGACAUGAGGAUCACCCAUGUAAACUGAAGGAGCGUCGAAAAUGACAGGUAGGUCGCAGAAUAAUAAAGGUGAUGGUAAAUAUU [Exclusion Arginine AGF1] | 21.4 | 34.5 | 29.6 | 29.3 | 22.3 |
| UAUCCACAUGAGGAUCACCCAUGUAGGGAAGGAGCGGUGAUUUCACCAGGUAGGUCGCCUUACUGAGGAGAGCCGGUGGAAUCGU [Exclusion - Arginine A (Freestyle 31)] | 22.3 | 31.9 | 32.9 | 31.6 | 24.9 |
